Test results: the supplement of paper PMC9170038

System: MS2 coat protein
Assay: apparent KD of MS2 coat protein; designed switch direction (-1 OFF switch, 1 ON switch): -1; higher = weaker reporter binding
In short: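 SNAP-549-labelled MS2 coat protein was titrated, doubling from 0.7 or 1.5 nM to 3 µM, over designed RNA switches transcribed on Illumina chips by stalled E. coli RNA polymerase. Runs were done without input, with 200 uM small-molecule ligand, or with an oligonucleotide input. Apparent KD is the per-design median over clusters of curve-fitted normalised fluorescence.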

[1] = Eterna round: R95, input ligand: FMN 200 uM
[2] = Eterna round: R95, input ligand: microRNA oligo, concentration not stated
[3] = Eterna round: R95, input ligand: none
[4] = input ligand: microRNA oligo, concentration not stated

Sequence	apparent KD of MS2 coat protein [1]	apparent KD of MS2 coat protein [2]	apparent KD of MS2 coat protein [3]	apparent KD of MS2 coat protein (input ligand: FMN 200 uM)	apparent KD of MS2 coat protein (input ligand: none)	apparent KD of MS2 coat protein [4]
AGUACUAACUCGAAAGUGUUAGUACAAUAAGCUUGUGAAACAUGAGGAUCACCCAUGUCCUCAUAAGCUCGUCUUAU [salish99_TOv2_r3_022] (puzzle: Sensor v3, turn-off variant 2)	0.0157 µM	0.739 µM	0.0153 µM	–	–	–
UAUCUACAUGAGGAUCACCCAUGUGAGGAUAUCAAAACCAGAGCGGAUCUCUGGCCCAUGAGAAGGUACAUGGU [ElNandoxlusion 5 - Jieux - Exclusion 1] (Eterna round: R97, puzzle: Exclusion 1)	–	–	–	0.0592 µM	0.02 µM	–
GAAAAGGUAGGAUAUACGAAAAAAAAGGGUAGAAAAAAAAAACAUGAGGAUCACCCAUGUAGAAGGACCAAAAG [salish99_ex2_r3_059] (Eterna round: R96, puzzle: Exclusion 2)	–	–	–	–	–	0.0347 µM
UUUAAUUUUUUUUUUUUACAAGCUUUUUGCUCGUCUUAUACAUGAGGAUCACCCAUGUAAGUGGGAAGUAAAUUAUC [JMF 54] (puzzle: Sensor v3, turn-off variant 2)	0.0483 µM	0.184 µM	0.0838 µM	–	–	–
CCAAACAGAGGAUAUGCGAAUAAAUAAAACUUUUUUUUUUAACAUGAGGAUCACCCAUGUAGAAGGCUGCAACC [Ex2 #40] (Eterna round: R97, puzzle: Exclusion 2)	–	–	–	0.0244 µM	0.0195 µM	–
AUUUUGUCAGGAUAUUGUUAGUUUAGUUGUUUGUAUUAGUUCGAGAAGGGACAUGAGGAUCACCCAUGUGAUAA [Ex4 #72] (Eterna round: R97, puzzle: Exclusion 4)	–	–	–	0.0719 µM	0.0626 µM	–
GAUCAUGCAGGAUAUACAGUAACCAUGAAAACAUGGUUGCUACAUGAGGAUCACCCAUGUAGAAGGGCAUGAUC [Omei Ex2 A2] (Eterna round: R97, puzzle: Exclusion 2)	–	–	–	0.0179 µM	0.0169 µM	–
AAGAAACAUGAGGAUCACCCAUGUGAGGAUAUGAGCAAGAAAAGAAAAGAAAGAAGAAUCAGAAGGCACAAAGG [salish99-ex1_r3_050] (puzzle: Exclusion 1)	6.99 µM	0.0011 µM	0.0493 µM	–	–	–
UUCCAACGAGGAUAUCGAUGGUGGAACAUGAGGAUCACCCAUGUAUGAGAUAUUGUAGUUCGAGAAGGCGUUCAGU [JR_E5_Sub056] (puzzle: Exclusion 5)	–	0.0315 µM	–	–	–	–
GCUCGUGGGCAAGGAUAUCCUACGCUGUUCUGGUUCGUGUCUGUUACAUGAGGAUCACCCAUGUGGGAGAAGGUGCACCAGGGU [Design 50] (Eterna round: R96, puzzle: Exclusion NG 2)	–	–	–	0.0228 µM	0.0183 µM	0.0123 µM
AGUGCUGGCGCGUCGGUGUUGGUGCAAUAAGCUUGUGAAACAUGAGGAUCACCCAUGUCCUCAUAAGCUCGUCUUAU [salish99_TOv2_r2_085] (puzzle: Sensor v3, turn-off variant 2)	0.0171 µM	0.732 µM	0.0158 µM	–	–	–
CAGUACUGAGGAUAUACAUGAGGAUCACCCAUGUGUUCCAGCUAGGGAACUAGCAAAAGUAGAAGGCAGUACUG [salish99_ex3_r3_075] (Eterna round: R96, puzzle: Exclusion 3)	–	–	–	0.455 µM	0.025 µM	0.0204 µM
GAAAAGGUAGGAUAUACGAAAAUAAAGGGUAGAAAUAAAACACAUGAGGAUCACCCAUGUAGAAGGACCAAAAG [salish99_ex2_r3_096] (puzzle: Exclusion 2)	0.0706 µM	0.0233 µM	0.0232 µM	–	–	–
AGUCCAGACGGACCCUCUAACAUGAGGAUCACCCAUGUAGCGGAGGAUAUCCGAAUUUGGGCGACGGAGAAGGCCGUUGCAGGG [Edsosobi] (Eterna round: R96, puzzle: Exclusion NG 3)	–	–	–	0.0213 µM	0.0275 µM	0.027 µM
CAGCUGAAAGUGAGGAUAUCUAGAGCUUCGGCUCUAGAGAAGGCACAUGAGGAUCACCCAUGUGAUCACAGCUG [BmEx4/7-A1] (Eterna round: R97, puzzle: Brourd's mod of Exclusion 4)	–	–	–	0.633 µM	0.356 µM	–
UAUAUAUAGUAAGGAUAUGUAAUUAUUUUAUACACAGAAGGUACUGACAUGAGGAUCACCCAUGUUUUAGUGUGGGCAUGUAGA [JMF's solution 51] (Eterna round: R96, puzzle: Exclusion NG 1)	–	–	–	–	–	0.0471 µM
GGAUAGUGAGGAUAUGCAUACGGUGUAAGUCCCAGAUCGAAACAUGAGGAUCACCCAUGUAGAAGGCGCAAAAC [Begerila] (puzzle: Exclusion 2)	–	0.0203 µM	–	–	–	–

Sequence	apparent KD of MS2 coat protein [1]	apparent KD of MS2 coat protein [2]	apparent KD of MS2 coat protein [3]	apparent KD of MS2 coat protein (input ligand: FMN 200 uM)	apparent KD of MS2 coat protein (input ligand: none)	apparent KD of MS2 coat protein [4]
UAAUUAAGUGUGAGGAUAUGCUGGUCCUUGGAUCAGCAGAAGGCACAUGAGGAUCACCCAUGUAAAUUAUUUAU [Mat - Exclusion 4 - JL Mod - D60] (Eterna round: R96, puzzle: Brourd's mod of Exclusion 4)	–	–	–	0.332 µM	0.0765 µM	0.054 µM
UUUAUAAUAAGAUCAAUUAAUUAACAUGAGGAUCACCCAUGUGAGGAUAUCAGCUCGUGUAGAGCUGAGAAGGCACAAUAUAAG [ExNG3/17-B3] (Eterna round: R96, puzzle: Exclusion NG 3)	–	–	–	–	–	0.0362 µM
CGACGUAAAGGAUAUACAUGAGGAUCACCCAUGUCCCUACAAUGAGUAGGUACACGCAGUAGAAGGUUACUUCG [Eternabot (Original) Solution 15] (Eterna round: R97, puzzle: Exclusion 3)	–	–	–	0.107 µM	0.037 µM	–
GAAGAAGAGAGAAAAGAAAACAUGAGGAUCACCCAUGUGAGAAGAUGAGGGUGUAACAGGCUUUAUGCUCGUCUUAU (puzzle: Sensor v3, turn-off variant 1)	0.0336 µM	0.12 µM	0.0401 µM	–	–	–
AGCACUAUCACGAAAGUGAUAGUGCAAUAAGCAAGUGAAACAUGAGGAUCACCCAUGUCCUCAAUUGCUCGUCUUAU [Mat - Sensor v2 -ver2- JL mod - D81] (Eterna round: R96, puzzle: Sensor v2, turn-off variant 2)	–	–	–	0.0493 µM	0.0512 µM	0.807 µM
CGGGUGAAUAGAGGAUAUAGUACAUGAGGAUCACCCAUGUAAUAAAUGAGAAUUUCGAAUGUAAUCUAGAAGGCUAGAAAACCC [Ostracism 99 - Jieux - Exclusion NG 2] (Eterna round: R96, puzzle: Exclusion NG 2)	–	–	–	0.367 µM	0.274 µM	0.15 µM
AGGGAUAAAGGAUAUACAUGAGGAUCACCCAUGUUGAGGAAAGUGAGAGGUGGCGAUAGUAGAAGGUUAGGUGG [JR_Exclu3_Sub083] (puzzle: Exclusion 3)	–	0.0799 µM	–	–	–	–
CGUGACUGAGGAUAUCUAUAAUAUCACAUGAGGAUCACCCAUGUCCAGCGAAAGCUGGAAGGAGAAGGCAGUCACG [Fiskers Ex 5 - 34] (puzzle: Exclusion 5)	0.0393 µM	0.0214 µM	0.0251 µM	–	–	–
UAUUAGCAAGCGAGAUCCCACAUGAGGAUCACCCAUGUGCUCGUCUUAUAAAGUACUGUGACGAUAGUCACGGUACA [Mat - Sensor, turn-off var - Eli Mod - D8] (Eterna round: R97, puzzle: Sensor, turn-off variant 1)	–	–	–	0.0166 µM	0.0156 µM	–
GAGUGCUGAGGAUAUACAUGAGGAUCACCCAUGUGCUUCAGCUAGGAGACUAGUAUCAGUAGAAGGCAGUACUC [Mod of lroppy 20 - Jieux - Exclusion 3] (Eterna round: R97, puzzle: Exclusion 3)	–	–	–	0.0573 µM	0.0147 µM	–
AGUACUAACACGAUAGUGUUAGUACUAUAAGCUUGUGUUACAUGAGGAUCACCCAUGUCCUCAUAAGCUCGUCUUAA [Mat - Sensor v3 - Turn-off var 2 - D65] (puzzle: Sensor v3, turn-off variant 2)	0.0369 µM	0.42 µM	0.0381 µM	–	–	–
GUGUAGACAGGAUAUGCUUUGAGCAUAUGAGAGUAUGCUCUACAUGAGGAUCACCCAUGUAGAAGGGUCUACAC [LRO-Excl2-01] (puzzle: Exclusion 2)	–	0.011 µM	–	–	–	–
CCUCUAUUUGUGAGGAUAUCGGUAAACUGGAUUGUCGAGAAGGCACAUGAGGAUCACCCAUGUAUUGAACAGCA [JR_BMEx4_Sub021] (Eterna round: R97, puzzle: Brourd's mod of Exclusion 4)	–	–	–	0.203 µM	0.0312 µM	–
GGUUGGCGAGGAUAUACAUGAGGAUCACCCAUGUGAGAGAAUAAAGUGAGGAAGAAAAGUAGAAGGCGCUGACG [salish99_ex3_r3_013] (puzzle: Exclusion 3)	1.03 µM	0.0421 µM	0.047 µM	–	–	–
UUUUAACAUGAGGAUCACCCAUGUGAGGAUAUCGUAUUUUUUUUUUUUUUUUUUUUUUCGAGAAGGCACAUUUU [My solution] (puzzle: Exclusion 1)	0.00124 µM	0.00656 µM	0.0165 µM	–	–	–
CGUAAGCUAGGAUAUGCUUUGGGAAAGCAUUCCUUCGAUAAACUUGAGGAUCACCCAAGUAGAAGGAGCUUACU [salish99_ex2_r4_011] (Eterna round: R97, puzzle: Exclusion 2)	–	–	–	0.0195 µM	0.0125 µM	–
GUAAUGAUUGUGAGGAUAUUUCAUAGAUAGAUAUUAGAGAAGGUACAUGAGGAUCACCCAUGUGUGAUUAUACA [Brourd's EX4 #72] (Eterna round: R97, puzzle: Brourd's mod of Exclusion 4)	–	–	–	0.0973 µM	0.114 µM	–
